Assay results taken from doi:10.1101/2024.12.20.629688, “The PH domain in the ArfGAP ASAP1 drives catalytic activation through an unprecedented allosteric mechanism” (bioRxiv, 2024).

T1: ASAP1 ZA domain (Arf GAP and ankyrin repeat domains), [431–724]ASAP1 (UniProt Q9QWY8 431-724)
T1 construct: Isotopically labelled for the PRE experiment; also called ^ΔPHZA; isolated ZA domain; source: recombinant; expression not described
T1 sequence (looked up): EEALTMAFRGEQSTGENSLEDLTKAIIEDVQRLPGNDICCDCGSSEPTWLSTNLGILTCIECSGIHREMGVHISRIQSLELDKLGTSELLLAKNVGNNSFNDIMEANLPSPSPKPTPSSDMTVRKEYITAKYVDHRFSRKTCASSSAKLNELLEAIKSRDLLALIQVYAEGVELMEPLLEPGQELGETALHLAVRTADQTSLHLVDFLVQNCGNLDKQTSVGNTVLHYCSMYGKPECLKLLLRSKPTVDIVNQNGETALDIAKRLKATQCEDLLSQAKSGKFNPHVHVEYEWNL

B1: Cys159-MTSL tagged myrArf1 (natural protein)
chain: not shown
modifications: N-myristoylated; MTSL spin label on the native Cys159
notes: human Arf1, UniProt P84077; source: E. coli BL21 Star (DE3), co-expressed with yeast NMT, purified; spin-labelled on nanodiscs
B2: ΔN14 ASAP1 PH domain, [339–451]ASAP1 (domain or fragment, UniProt Q9QWY8 339-451, looked up)
chain: GSEKKGFLLKKSDGIRKVWQRRKCAVKNGILTISHATSNRQPAKLNLLTCQVKPNAEDKKSFDLISHNRTYHFQAEDEQDYIAWISVLTNSKEEALTMAFRGEQSTGENSLED
notes: ASAP1 PH domain without residues 325-338 (the first 14 residues of the wt PH construct), residues 339-451; also called ^ΔN14PH

Key:
[1] = biological target: T1, ASAP1 ZA domain (Arf GAP and ankyrin …); assay: NMR paramagnetic relaxation enhancement; Cys159-MTSL myrArf1 (non-hydrolysable GTP analog) alone or in complex with wt PH on nanodiscs, 100 μM, with 100 μM isolated isotopically labelled ZA domain; settings: both partners purified
[2] = biological target: T2, myristoylated human Arf1, GTP-bound form, anchored on membrane (nanodiscs or LUVs) (human, UniProt P84077 1-181, N-myristoylated); assay: cell-based or functional assay
[3] = biological target: T2, myristoylated human Arf1, GTP-bound …; assay: other fluorescence titration + other: inhibition of the GAP activity of wt PZA; proxies for affinity: (1) rate of mant-GTP dissociation from myrArf1 (Trp to mant FRET) against PH concentration, LUVs with 5 mol% PI(4,5)P2, excess GTP; (2) IC50 of PH domain on GTP hydrolysis in 3 min with myrArf1·GTP below the Km and 1 nM wt PZA; settings: both partners purified

T2 sequence (P84077 whole entry, the tested form may be a part): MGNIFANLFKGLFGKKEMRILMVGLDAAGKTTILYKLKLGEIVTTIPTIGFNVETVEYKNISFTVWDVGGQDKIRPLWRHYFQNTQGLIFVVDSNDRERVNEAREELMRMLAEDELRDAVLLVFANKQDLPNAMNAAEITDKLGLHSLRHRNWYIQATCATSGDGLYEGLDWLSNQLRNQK

| Binder | Kd [1] [µM] | “in trans” effect of the PH domain on GTP hydrolysis on myrArf1 by the isolated ZA domain (LUVs), relative to wt PH [2] | affinity relative to wt PH [3] |
| --- | --- | --- | --- |
| B1 | 100 to 1000 | – | – |
| B2 | – | 0.01 fold of wt PH | ~0.5 fold of wt PH |
